Sequences and labels used below:
B1: A-003 (antibody, V domains shown)
VH: QVQLVQSGAEVKKPGSSVKVSCKASGGTFSSYAISWVRQAPGQGLEWMGGIIPIFGTANYAQKFQGRVTITADESTSTAYMELSSLRSEDTAVYYCAKGPPVGSSSWYTDWYFDLWGRGTLVTVSS
VL: SYELTQPPSVSVSPGQTASITCSGDKLGDKYASWYQQKPGQSPVLVIYQDSKRPSGIPERFSGSNSGNTATLTISGTQAEDEADYYCLSYGAHSHGVVFGGGTKLTVL
notes: tested as IgG; also called parental antibody A-003
B2: A-023 (antibody, V domains shown)
VH: B1 VH with G27Y, S30Q, S31Q, I34M, M48I, I54Q, G56S, A58S, N59V
VL: B1 VL
notes: tested as IgG
B3: A-028 (antibody, V domains shown)
VH: B1 VH with G27Y, T28S, S31E, Y32H, I34M, I54K, G56S, A58S, N59V, Y60F
VL: B1 VL
notes: tested as IgG
B4: A-026 (antibody, V domains shown)
VH: B1 VH with G27Y, S30T, Y32H, A33G, I34M, I52L, G56H, N59T
VL: B1 VL
notes: tested as IgG
B5: A-030 (antibody, V domains shown)
VH: B1 VH with T28S, S30Q, I34F, I52V, F55Y, G56Y, N59T
VL: B1 VL
notes: tested as IgG
B6: A-024 (antibody, V domains shown)
VH: B1 VH with G27Y, S30T, S31G, Y32S, I34M, I52L, A58S, N59V
VL: B1 VL
notes: tested as IgG
B7: A-033 (antibody, V domains shown)
VH: B1 VH with G27Y, Y32H, I34M, I54T, G56K, N59V, Y60F
VL: B1 VL
notes: tested as IgG
B8: A-027 (antibody, V domains shown)
VH: B1 VH with T28S, S30T, S31G, I52L, I54S, G56Y, N59V
VL: B1 VL
notes: tested as IgG
B9: A-025 (antibody, V domains shown)
VH: B1 VH with G27Y, S31K, Y32S, I34M, I52V, I54K, G56H, A58S, N59V
VL: B1 VL
notes: tested as IgG
B10: A-032 (antibody, V domains shown)
VH: B1 VH with S30Q, I34F, I52V, I54Q, F55Y, G56S, N59V
VL: B1 VL
notes: tested as IgG
B11: A-029 (antibody, V domains shown)
VH: B1 VH with G27Y, S31I, I34M, I54S, G56R, N59V
VL: B1 VL
notes: tested as IgG
B12: A-031 (antibody, V domains shown)
VH: B1 VH with G27Y, S30T, S31K, Y32T, I34M, I54S, F55Y, G56Y, N59V
VL: B1 VL
notes: tested as IgG
B13: A-017 (antibody, V domains shown)
VH: QVQLVQSGAEVKKPGSSVKVSCKASGGTFSSYAISWVRQAPGQGLEWMGGIIPYFSLANYAPKFQGRVTITADESTSTAYMELSSLRSEDTAVYYCAKDLGTYSSGWPYYYGMDVWGQGTTVTVSS
VL: SYELTQPPSVSVSPGQTASITCSGDKLGDKYASWYQQKPGQSPVLVIYQDSKRPSGIPERFSGSNSGNTATLTISGTQAEDEADYYCQSTTHTSFVFGGGTKLTVL
notes: tested as IgG
B14: A-034 (antibody, V domains shown)
VH: B13 VH with Y54I, S56G, L57T, P62Q
VL: B13 VL with S89L, T90Y, T91G, S94I, F95T
notes: tested as IgG
B15: A-019 (antibody, V domains shown)
VH: B13 VH with G27Y, S30T, S31T, Y32S, I34M, S35N, L57T
VL: B13 VL
notes: tested as IgG
B16: A-018 (antibody, V domains shown)
VH: B13 VH with S31T, Y32S, Y54I, S56Y, L57T, P62Q
VL: B13 VL
notes: tested as IgG
B17: A-020 (antibody, V domains shown)
VH: B13 VH with S30Q, S31T, G50S, Y54K, S56Y, L57Q, A58S, P62Y
VL: B13 VL
notes: tested as IgG
B18: A-021 (antibody, V domains shown)
VH: B13 VH with T28S, F29I, S30T, I34F, S35A, Y54G, S56Y, L57A, P62Q
VL: B13 VL
notes: tested as IgG
B19: A-035 (antibody, V domains shown)
VH: B13 VH with Y54I, S56G, L57T, P62Q
VL: B13 VL with S89L, T90S, T91H, H92G, S94L, F95L
notes: tested as IgG

Residue numbers refer to the chain shown, from its start.

The target of the first test is T1, recombinant LILRB1 ECD (human, UniProt Q8NHL6 24-461).
T1 construct: also called biotinylated LILRB1 ECD
T1 sequence (Q8NHL6 24-461 limits assumed): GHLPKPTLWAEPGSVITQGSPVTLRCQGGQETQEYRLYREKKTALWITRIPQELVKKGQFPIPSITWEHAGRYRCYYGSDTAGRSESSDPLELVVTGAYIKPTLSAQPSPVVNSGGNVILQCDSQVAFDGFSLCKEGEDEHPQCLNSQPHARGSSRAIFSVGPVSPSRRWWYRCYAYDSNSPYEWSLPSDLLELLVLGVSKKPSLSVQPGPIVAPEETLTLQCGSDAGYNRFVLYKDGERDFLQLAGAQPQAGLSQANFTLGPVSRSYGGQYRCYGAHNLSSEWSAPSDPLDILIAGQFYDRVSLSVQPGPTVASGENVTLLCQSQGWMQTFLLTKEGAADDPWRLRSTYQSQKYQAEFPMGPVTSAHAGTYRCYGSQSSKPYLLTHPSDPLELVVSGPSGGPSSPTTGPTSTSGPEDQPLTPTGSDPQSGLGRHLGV
Description: ELISA, LILRB1 ECD binding to HLA-G-Fc. Here is the method:
(§1) HLA-G inhibition was tested by ELISA. 384-well Maxisorp plates were coated with 2 ug/mL B2M-HLA-G fused to a mouse IgG2a-Fc and the plates were blocked with 2% (w/v) BSA in PBST. […] 15 ul of the antibody dilution series (300 nM to 0.3 nM) were mixed with 30 μL of the pre-mixed LILRB/Avidin-HRP solution (final antibody concentration 100 nM to 0.1 nM) and incubated for 1 h at room temperature. After three wash cycles with PBST, 20 μL of the antibody/LILRB/Avidin-HRP solution was transferred to the plate with immobilized HLA-G and incubated for 15 min at room temperature. After three wash cycles with PBST, residual LILRB binding to HLA-G was detected by developing the ELISA with TMB substrate.
In general, IC50 refers to the midpoint of a concentration-inhibition curve. Consider B1, for which the half-maximal inhibitory concentration (IC50) turned out to be 16.5 nM.

As for B2, the IC50 was found to be 7.5 nM.

Regarding B3, the IC50 came to 3.9 nM.

Take B4: the 50% inhibitory concentration (IC50) stood at 6.1 nM.

In the case of B5, the half-maximal inhibitory concentration (IC50) was 6.7 nM.

B6: the IC50 worked out at 3.9 nM.

For B7, the concentration for half-maximal inhibition (IC50) worked out at 8.3 nM.

With B8, the IC50 is 7 nM.

With B9, the IC50 turned out to be 5.1 nM.

In the case of B10, the IC50 is 10.5 nM.

With B11, the IC50 was determined as 6.5 nM.

As to B12, the IC50 was found to be 4.1 nM.

For B13, the IC50 came to 4.5 nM.

With B14, the 50% inhibitory concentration (IC50) turned out to be 3.3 nM.

For the molecule B15, the IC50 stood at 4 nM.

Turning to B16, the IC50 worked out at 5 nM.

With B17, the IC50 was determined as 3.7 nM.

As for B18, the half-inhibitory concentration (IC50) was determined as 4.2 nM.

As for B19, the IC50 was 1.7 nM.

The next test deals with T2, recombinant LILRB2 ECD (human, UniProt Q8N423 22-460).
T2 construct: also called biotinylated LILRB2 ECD
T2 sequence (Q8N423 22-460 limits assumed): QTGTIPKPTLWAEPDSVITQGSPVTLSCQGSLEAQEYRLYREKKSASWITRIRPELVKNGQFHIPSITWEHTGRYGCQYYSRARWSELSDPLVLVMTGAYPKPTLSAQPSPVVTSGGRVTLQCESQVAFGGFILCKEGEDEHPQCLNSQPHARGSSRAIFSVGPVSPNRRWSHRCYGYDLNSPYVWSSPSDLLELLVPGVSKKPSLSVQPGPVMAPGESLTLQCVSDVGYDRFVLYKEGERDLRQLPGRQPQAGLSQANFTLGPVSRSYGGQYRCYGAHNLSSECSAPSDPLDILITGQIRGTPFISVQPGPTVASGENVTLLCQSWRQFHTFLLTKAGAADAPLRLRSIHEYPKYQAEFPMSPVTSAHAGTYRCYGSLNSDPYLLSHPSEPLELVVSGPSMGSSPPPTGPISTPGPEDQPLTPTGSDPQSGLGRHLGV
Description: ELISA, LILRB2 ECD binding to HLA-G-Fc. Here is the method: as §1
(In general: In an ELISA, binding on a coated surface is turned into a signal by an enzyme label.)
Turning to B1, the 50% inhibitory concentration (IC50) is 65.8 nM.

B2: the half-inhibitory concentration (IC50) turned out to be 6.8 nM.

For the molecule B3, the 50% inhibitory concentration (IC50) was 3.9 nM.

Regarding B4, the IC50 is 5.3 nM.

B5: the IC50 was 4.4 nM.

Consider B6, for which the 50% inhibitory concentration (IC50) is 3.3 nM.

With B7, the IC50 amounted to 8.6 nM.

B8: the half-maximal inhibitory concentration (IC50) was 5.6 nM.

Take B9: the IC50 was determined as 4.3 nM.

As for B10, the IC50 came out at 7.6 nM.

For B11, the IC50 is 5.6 nM.

In the case of B12, the IC50 stood at 4.2 nM.

As for B13, the IC50 is 4.4 nM.

On to B14, for which the half-inhibitory concentration (IC50) is 5.6 nM.

Consider B15, for which the IC50 came out at 4.9 nM.

Turning to B16, the IC50 worked out at 5.1 nM.

As to B17, the concentration for half-maximal inhibition (IC50) came out at 3.8 nM.

Take B18: the IC50 came out at 5 nM.

For B19, the half-maximal inhibitory concentration (IC50) was 3.5 nM.

The next test has as its target T1, recombinant LILRB1 ECD. The experiment in a line: BLI, IgG on AHC sensor, ECD in solution. Here is the method:
(§2) Briefly, IgGs were captured on anti-human capture (AHC) biosensors (Sartorius). […] Subsequently, the sensors were dipped into 1× Kinetics Buffer to measure the dissociation over 420 s. All sensorgrams were double referenced against 1× Kinetics Buffer and unloaded […] sensors to subtract sensor drifts and potential reference binding of the analytes. The affinities were determined by applying a 1:1 binding model.
By Kd is commonly meant the constant that tells how readily two partners part at equilibrium. Take B1: the dissociation constant Kd is 99.4 nM.

Regarding B2, the Kd was 3.1 nM.

As for B3, the dissociation constant (Kd) was found to be 1.8 nM.

As to B4, the Kd is 4.4 nM.

Consider B5, for which the dissociation constant (Kd) came out at 3.2 nM.

Take B6: the equilibrium dissociation constant (Kd) was 1.2 nM.

Turning to B7, the dissociation constant Kd amounted to 0.5 nM.

Take B8: the Kd came out at 0.5 nM.

Consider B9, for which the equilibrium dissociation constant (Kd) amounted to 1.8 nM.

Consider B10, for which the dissociation constant (Kd) was 2.2 nM.

Turning to B11, the Kd is 1.9 nM.

Consider B12, for which the dissociation constant Kd amounted to 0.8 nM.

As for B13, the Kd turned out to be 2.3 nM.

As to B14, the equilibrium dissociation constant (Kd) was 16.4 nM.

On to B15, for which the Kd is 20.7 nM.

B16: the Kd was 6.2 nM.

As for B17, the dissociation constant Kd is 21.2 nM.

Turning to B18, the equilibrium dissociation constant (Kd) was 4.9 nM.

Regarding B19, the dissociation constant (Kd) is 12.9 nM.

A further test deals with T3, recombinant LILRA1 ECD (human, UniProt O75019 17-461).
T3 construct: whole canonical entry named; also called LILA1
T3 sequence (O75019 17-461 limits assumed): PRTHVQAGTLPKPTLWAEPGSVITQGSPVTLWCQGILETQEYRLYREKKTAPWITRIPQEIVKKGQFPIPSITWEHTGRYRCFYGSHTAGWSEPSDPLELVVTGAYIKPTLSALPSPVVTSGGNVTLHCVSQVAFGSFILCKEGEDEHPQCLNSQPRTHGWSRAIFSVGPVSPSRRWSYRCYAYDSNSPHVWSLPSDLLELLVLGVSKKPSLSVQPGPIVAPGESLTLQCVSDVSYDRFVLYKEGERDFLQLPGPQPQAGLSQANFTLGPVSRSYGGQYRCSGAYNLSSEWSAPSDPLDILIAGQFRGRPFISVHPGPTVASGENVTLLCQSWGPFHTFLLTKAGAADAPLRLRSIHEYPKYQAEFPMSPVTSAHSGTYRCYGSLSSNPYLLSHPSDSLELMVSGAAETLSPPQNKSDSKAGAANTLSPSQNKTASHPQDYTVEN
Description: BLI, IgG on AHC sensor, ECD in solution. The protocol:
as §2
B1: the Kd came to 342 nM.

B2: the Kd was 82.4 nM.

In the case of B3, the Kd was 48.3 nM.

In the case of B4, the equilibrium dissociation constant (Kd) worked out at 120 nM.

Turning to B5, the Kd amounted to 63.8 nM.

B6: the Kd is 31.8 nM.

For the molecule B7, the Kd is 23 nM.

Take B8: the equilibrium dissociation constant (Kd) worked out at 33.9 nM.

Take B9: the Kd was 71.3 nM.

For the molecule B10, the Kd was 79.5 nM.

With B11, the dissociation constant (Kd) is 29.5 nM.

Take B12: the Kd came out at 11.6 nM.

Take B13: the Kd was 591 nM.

B14: the dissociation constant Kd was 2690 nM.

For B15, the equilibrium dissociation constant (Kd) was 1030 nM.

As for B16, the dissociation constant Kd is 808 nM.

For B17, the Kd was found to be 316 nM.

In the case of B18, the Kd worked out at 541 nM.

Take B19: the equilibrium dissociation constant (Kd) was determined as 734 nM.

The target in another test is T2, recombinant LILRB2 ECD. The experiment in a line: BLI, IgG on AHC sensor, ECD in solution. Here is the method: as §2
On the technique in general: In BLI a coated tip is dipped into the sample, and binding shifts an interference pattern.
For the molecule B1, the Kd was 73.1 nM.

In the case of B2, the Kd amounted to 4.3 nM.

With B3, the dissociation constant Kd was 1.6 nM.

B4: the dissociation constant Kd was determined as 3.9 nM.

B5: the dissociation constant (Kd) amounted to 3.2 nM.

As for B6, the Kd was found to be 3.6 nM.

In the case of B7, the dissociation constant Kd was 1.4 nM.

For B8, the dissociation constant Kd stood at 1.9 nM.

Consider B9, for which the Kd was found to be 4.2 nM.

On to B10, for which the Kd was 2.5 nM.

Take B11: the Kd stood at 2.7 nM.

With B12, the equilibrium dissociation constant (Kd) came out at 0.9 nM.

Regarding B13, the Kd turned out to be 1.7 nM.

On to B14, for which the Kd came out at 82.7 nM.

Turning to B15, the Kd stood at 3.9 nM.

Consider B16, for which the dissociation constant Kd worked out at 2.7 nM.

Consider B17, for which the dissociation constant Kd worked out at 2.9 nM.

Regarding B18, the Kd came out at 3.1 nM.

Regarding B19, the Kd is 30.8 nM.

The next test deals with T4, recombinant LILRA3 (human, UniProt Q8N6C8 24-439).
T4 construct: whole entry named; also called LILRA3 ECD; LILA3
T4 sequence (Q8N6C8 24-439 limits assumed): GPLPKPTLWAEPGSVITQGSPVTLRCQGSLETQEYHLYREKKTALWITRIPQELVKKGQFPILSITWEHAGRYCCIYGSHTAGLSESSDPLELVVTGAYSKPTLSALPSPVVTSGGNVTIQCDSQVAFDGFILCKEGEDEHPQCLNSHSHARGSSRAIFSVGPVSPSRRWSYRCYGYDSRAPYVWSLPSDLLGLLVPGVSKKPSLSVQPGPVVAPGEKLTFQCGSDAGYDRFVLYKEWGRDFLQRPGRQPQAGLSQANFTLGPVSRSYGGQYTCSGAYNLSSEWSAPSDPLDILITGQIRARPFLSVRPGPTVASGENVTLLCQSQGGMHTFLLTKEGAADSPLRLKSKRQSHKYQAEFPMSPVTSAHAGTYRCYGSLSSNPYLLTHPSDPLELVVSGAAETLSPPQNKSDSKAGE
The experiment in a line: BLI, IgG on AHC sensor, ECD in solution. Here is the method: as §2
Take B1: the Kd was determined as 519 nM.

In the case of B2, the equilibrium dissociation constant (Kd) stood at 230 nM.

For the molecule B3, the Kd amounted to 187 nM.

Take B4: the dissociation constant Kd amounted to 79.3 nM.

B5: the Kd worked out at 124 nM.

On to B6, for which the Kd stood at 64.8 nM.

For the molecule B7, the Kd amounted to 84.8 nM.

As for B8, the Kd turned out to be 124 nM.

For B9, the equilibrium dissociation constant (Kd) worked out at 166 nM.

As to B10, the dissociation constant Kd amounted to 253 nM.

As to B11, the Kd amounted to 123 nM.

For the molecule B12, the Kd is 50.1 nM.

B13: the dissociation constant (Kd) stood at 223 nM.

B14: the Kd was 678 nM.

Take B15: the Kd stood at 144 nM.

Regarding B16, the Kd came to 212 nM.

Consider B17, for which the dissociation constant (Kd) stood at 392 nM.

As for B18, the Kd stood at 157 nM.

As to B19, the Kd was found to be 1250 nM.

Values taken from patent US20260209345A1 (IOMX THERAPEUTICS, published 2026).
